From patent US20220177549A1

How the values were obtained:
Assay in all cases: SPR (Biacore 8K+), pH 5.9, 25 C; FcRn captured by anti-His, IgG as analyte; 1:1 kinetic model
[1] = molecular target: porcine FcRn complex (porcine) (UniProt Q07717)
[2] = molecular target: equine FcRn complex (equine) (UniProt F6XZ61)
[3] = molecular target: bovine FcRn complex (bovine) (UniProt F6R592)
Chain of bovine FcRn complex (bovine) (chain, as listed by the source, chain 1 of 2): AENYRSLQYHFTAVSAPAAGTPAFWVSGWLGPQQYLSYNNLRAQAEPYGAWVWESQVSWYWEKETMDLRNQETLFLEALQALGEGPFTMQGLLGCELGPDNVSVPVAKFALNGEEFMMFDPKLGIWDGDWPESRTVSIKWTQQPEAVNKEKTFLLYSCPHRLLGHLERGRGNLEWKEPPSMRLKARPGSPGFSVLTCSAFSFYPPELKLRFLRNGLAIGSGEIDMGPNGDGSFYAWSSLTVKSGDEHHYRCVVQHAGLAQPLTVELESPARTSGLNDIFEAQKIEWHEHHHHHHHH
Chain of bovine FcRn complex (bovine) (P01888 other isoform, or with tags, fused parts or gaps, chain 2 of 2): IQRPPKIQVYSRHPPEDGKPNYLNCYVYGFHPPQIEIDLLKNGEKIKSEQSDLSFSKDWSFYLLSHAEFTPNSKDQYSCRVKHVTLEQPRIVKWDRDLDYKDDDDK

Chain of porcine FcRn complex (porcine) (main, as listed by the source, chain 1 of 2): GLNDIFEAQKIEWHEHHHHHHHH
Chain of porcine FcRn complex (porcine) (Q07717 other isoform, or with tags, fused parts or gaps, chain 2 of 2): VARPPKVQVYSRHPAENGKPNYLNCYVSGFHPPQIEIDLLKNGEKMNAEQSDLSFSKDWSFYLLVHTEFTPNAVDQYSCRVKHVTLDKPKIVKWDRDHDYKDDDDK
Chain of equine FcRn complex (equine) (chain, as listed by the source, chain 1 of 2): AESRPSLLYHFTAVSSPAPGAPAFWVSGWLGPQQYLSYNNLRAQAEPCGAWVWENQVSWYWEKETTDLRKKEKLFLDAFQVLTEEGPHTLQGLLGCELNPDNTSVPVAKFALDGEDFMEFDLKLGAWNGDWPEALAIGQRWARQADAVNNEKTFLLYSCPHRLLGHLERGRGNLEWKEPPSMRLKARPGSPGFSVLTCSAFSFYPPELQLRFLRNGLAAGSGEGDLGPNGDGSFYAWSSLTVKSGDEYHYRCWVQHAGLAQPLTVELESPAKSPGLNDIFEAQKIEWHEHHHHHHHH
Chain of equine FcRn complex (equine) (P30441 other isoform, or with tags, fused parts or gaps, chain 2 of 2): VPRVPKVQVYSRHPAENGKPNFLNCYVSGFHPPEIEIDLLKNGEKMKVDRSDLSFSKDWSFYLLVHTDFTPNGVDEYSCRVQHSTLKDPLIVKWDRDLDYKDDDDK

| Binder | Fold increase over wild-type KD [1] [fold] | Kd [1] [nM] | Fold increase over wild-type KD [2] [fold] | Kd [2] [nM] | other results |
| --- | --- | --- | --- | --- | --- |
| Equine M428Y (antibody, part only; not given: variable domains, light chain, IgG1, not shown: another chain or arm of the molecule) Fc: APELLGGPSVFIFPPNPKDTLMITRTPEVTCVVVDVSQENPDVKFNWYMDGVEVRTATTRPKEEQFNSTYRVVSVLRIQHQDWLSGKEFKCKVNNQALPQPIERTITKTKGRSQEPQVYVLAPHPDELSKSKVSVTCLVKDFYPPEINIEWQSNGQPELETKYSTTQAQQDSDGSYFLYSKLSVDRNRWQQGTTFTCGVYHEALHNHYTQKNVSKNPGK |  |  | 0.9 | 151 |  |
| Equine N434Y (antibody, part only; not given: variable domains and light chain, IgG1, not shown: another chain or arm of the molecule) Fc: APELLGGPSVFIFPPNPKDTLMITRTPEVTCVVVDVSQENPDVKFNWYMDGVEVRTATTRPKEEQFNSTYRVVSVLRIQHQDWLSGKEFKCKVNNQALPQPIERTITKTKGRSQEPQVYVLAPHPDELSKSKVSVTCLVKDFYPPEINIEWQSNGQPELETKYSTTQAQQDSDGSYFLYSKLSVDRNRWQQGTTFTCGVMHEALHYHYTQKNVSKNPGK |  |  | 61 | 2.35 |  |
| Equine Q309D (antibody, part only; not given: variable domains and light chain, IgG1, not shown: another chain or arm of the molecule) Fc: APELLGGPSVFIFPPNPKDTLMITRTPEVTCVVVDVSQENPDVKFNWYMDGVEVRTATTRPKEEQFNSTYRVVSVLRIDHQDWLSGKEFKCKVNNQALPQPIERTITKTKGRSQEPQVYVLAPHPDELSKSKVSVTCLVKDFYPPEINIEWQSNGQPELETKYSTTQAQQDSDGSYFLYSKLSVDRNRWQQGTTFTCGVMHEALHNHYTQKNVSKNPGK |  |  | 1 | 144 |  |
| Equine M252Y (antibody, part only; not given: variable domains, light chain, IgG1, not shown: another chain or arm of the molecule) Fc: APELLGGPSVFIFPPNPKDTLYITRTPEVTCVVVDVSQENPDVKFNWYMDGVEVRTATTRPKEEQFNSTYRVVSVLRIQHQDWLSGKEFKCKVNNQALPQPIERTITKTKGRSQEPQVYVLAPHPDELSKSKVSVTCLVKDFYPPEINIEWQSNGQPELETKYSTTQAQQDSDGSYFLYSKLSVDRNRWQQGTTFTCGVMHEALHNHYTQKNVSKNPGK |  |  | 2 | 71.4 |  |
| Bovine wild-type (antibody, part only; not given: variable domains, light chain, IgG1, not shown: another chain or arm of the molecule) Fc: PPELPGGPSVFIFPPKPKDTLTISGTPEVTCVVVDVGHDDPEVKFSWFVDNVEVNTATTKPREEQFNSTYRVVSALRIQHQDWTGGKEFKCKVHNEGLPAPIVRTISRTKGPAREPQVYVLAPPQEELSKSTVSLTCMVTSFYPDYIAVEWQRNGQPESEDKYGTTPPQLDADSSYFLYSKLRVDRNSWQEGDTYTCVVMHEALHNHYTQKSTSKSA |  |  |  |  | Fold increase over wild-type KD [3]: 1 fold; Kd [3]: 505 nM |
| Bovine T252Y (antibody, part only; not given: variable domains and light chain, IgG1, not shown: another chain or arm of the molecule) Fc: PPELPGGPSVFIFPPKPKDTLYISGTPEVTCVVVDVGHDDPEVKFSWFVDNVEVNTATTKPREEQFNSTYRVVSALRIQHQDWTGGKEFKCKVHNEGLPAPIVRTISRTKGPAREPQVYVLAPPQEELSKSTVSLTCMVTSFYPDYIAVEWQRNGQPESEDKYGTTPPQLDADSSYFLYSKLRVDRNSWQEGDTYTCVVMHEALHNHYTQKSTSKSA |  |  |  |  | Fold increase over wild-type KD [3]: 7.1 fold; Kd [3]: 71.4 nM |
| Bovine Q309V (antibody, part only; not given: variable domains, light chain, IgG1, not shown: another chain or arm of the molecule) Fc: PPELPGGPSVFIFPPKPKDTLTISGTPEVTCVVVDVGHDDPEVKFSWFVDNVEVNTATTKPREEQFNSTYRVVSALRIVHQDWTGGKEFKCKVHNEGLPAPIVRTISRTKGPAREPQVYVLAPPQEELSKSTVSLTCMVTSFYPDYIAVEWQRNGQPESEDKYGTTPPQLDADSSYFLYSKLRVDRNSWQEGDTYTCVVMHEALHNHYTQKSTSKSA |  |  |  |  | Fold increase over wild-type KD [3]: 3.9 fold; Kd [3]: 129 nM |
| Bovine Q311V (antibody, part only; not given: variable domains and light chain, IgG1, not shown: another chain or arm of the molecule) Fc: PPELPGGPSVFIFPPKPKDTLTISGTPEVTCVVVDVGHDDPEVKFSWFVDNVEVNTATTKPREEQFNSTYRVVSALRIQHVDWTGGKEFKCKVHNEGLPAPIVRTISRTKGPAREPQVYVLAPPQEELSKSTVSLTCMVTSFYPDYIAVEWQRNGQPESEDKYGTTPPQLDADSSYFLYSKLRVDRNSWQEGDTYTCVVMHEALHNHYTQKSTSKSA |  |  |  |  | Fold increase over wild-type KD [3]: 2.8 fold |

Second part, led by results:

| Fold increase over wild-type KD [1] [fold] | Kd [1] [nM] | Fold increase over wild-type KD [2] [fold] | Kd [2] [nM] | Binder | other results |
| --- | --- | --- | --- | --- | --- |
| 3.3 | 96.1 |  |  | Porcine T286E (antibody, part only; not given: variable domains and light chain, IgG1a, not shown: another chain or arm of the molecule) Fc: GCEVAGPSVFIFPPKPKDTLMISQTPEVTCVVVDVSKEHAEVQFSWYVDGVEVHEAETRPKEEQFNSTYRVVSVLPIQHQDWLKGKEFKCKVNNVDLPAPITRTISKAIGQSREPQVYTLPPPAEELSRSKVTVTCLVIGFYPPDIHVEWKSNGQPEPEGNYRTTPPQQDVDGTFFLYSKLAVDKARWDHGETFECAVMHEALHNHYTQKSISKTQGK |  |
| 3.3 | 97.2 |  |  | Porcine M252Y (antibody, part only; not given: variable domains and light chain, IgG1a, not shown: another chain or arm of the molecule) Fc: GCEVAGPSVFIFPPKPKDTLYISQTPEVTCVVVDVSKEHAEVQFSWYVDGVEVHTAETRPKEEQFNSTYRVVSVLPIQHQDWLKGKEFKCKVNNVDLPAPITRTISKAIGQSREPQVYTLPPPAEELSRSKVTVTCLVIGFYPPDIHVEWKSNGQPEPEGNYRTTPPQQDVDGTFFLYSKLAVDKARWDHGETFECAVMHEALHNHYTQKSISKTQGK |  |
| 3.6 | 86.9 |  |  | Porcine M428Y (antibody, part only; not given: variable domains and light chain, IgG1a, not shown: another chain or arm of the molecule) Fc: GCEVAGPSVFIFPPKPKDTLMISQTPEVTCVVVDVSKEHAEVQFSWYVDGVEVHTAETRPKEEQFNSTYRVVSVLPIQHQDWLKGKEFKCKVNNVDLPAPITRTISKAIGQSREPQVYTLPPPAEELSRSKVTVTCLVIGFYPPDIHVEWKSNGQPEPEGNYRTTPPQQDVDGTFFLYSKLAVDKARWDHGETFECAVYHEALHNHYTQKSISKTQGK |  |
| 9.3 | 34.1 |  |  | Porcine Q309V (antibody, part only; not given: variable domains, light chain, IgG1a, not shown: another chain or arm of the molecule) Fc: GCEVAGPSVFIFPPKPKDTLMISQTPEVTCVVVDVSKEHAEVQFSWYVDGVEVHTAETRPKEEQFNSTYRVVSVLPIVHQDWLKGKEFKCKVNNVDLPAPITRTISKAIGQSREPQVYTLPPPAEELSRSKVTVTCLVIGFYPPDIHVEWKSNGQPEPEGNYRTTPPQQDVDGTFFLYSKLAVDKARWDHGETFECAVMHEALHNHYTQKSISKTQGK |  |
| 3 | 105 |  |  | Porcine A426Y (antibody, part only; not given: variable domains, light chain, IgG1a, not shown: another chain or arm of the molecule) Fc: GCEVAGPSVFIFPPKPKDTLMISQTPEVTCVVVDVSKEHAEVQFSWYVDGVEVHTAETRPKEEQFNSTYRVVSVLPIQHQDWLKGKEFKCKVNNVDLPAPITRTISKAIGQSREPQVYTLPPPAEELSRSKVTVTCLVIGFYPPDIHVEWKSNGQPEPEGNYRTTPPQQDVDGTFFLYSKLAVDKARWDHGETFECYVMHEALHNHYTQKSISKTQGK |  |
| 40 | 7.93 |  |  | Porcine N434Y (antibody, part only; not given: variable domains and light chain, IgG1a, not shown: another chain or arm of the molecule) Fc: GCEVAGPSVFIFPPKPKDTLMISQTPEVTCVVVDVSKEHAEVQFSWYVDGVEVHTAETRPKEEQFNSTYRVVSVLPIQHQDWLKGKEFKCKVNNVDLPAPITRTISKAIGQSREPQVYTLPPPAEELSRSKVTVTCLVIGFYPPDIHVEWKSNGQPEPEGNYRTTPPQQDVDGTFFLYSKLAVDKARWDHGETFECAVMHEALHYHYTQKSISKTQGK |  |
| 3.4 | 93.6 |  |  | Porcine Q309D (antibody, part only; not given: variable domains and light chain, IgG1a, not shown: another chain or arm of the molecule) Fc: GCEVAGPSVFIFPPKPKDTLMISQTPEVTCVVVDVSKEHAEVQFSWYVDGVEVHTAETRPKEEQFNSTYRVVSVLPIDHQDWLKGKEFKCKVNNVDLPAPITRTISKAIGQSREPQVYTLPPPAEELSRSKVTVTCLVIGFYPPDIHVEWKSNGQPEPEGNYRTTPPQQDVDGTFFLYSKLAVDKARWDHGETFECAVMHEALHNHYTQKSISKTQGK |  |
| 4.1 | 76.4 |  |  | Porcine Q311V (antibody, part only; not given: variable domains and light chain, IgG1a, not shown: another chain or arm of the molecule) Fc: GCEVAGPSVFIFPPKPKDTLMISQTPEVTCVVVDVSKEHAEVQFSWYVDGVEVHTAETRPKEEQFNSTYRVVSVLPIQHVDWLKGKEFKCKVNNVDLPAPITRTISKAIGQSREPQVYTLPPPAEELSRSKVTVTCLVIGFYPPDIHVEWKSNGQPEPEGNYRTTPPQQDVDGTFFLYSKLAVDKARWDHGETFECAVMHEALHNHYTQKSISKTQGK |  |
|  |  | 4 | 35.7 | Equine Q311V (antibody, part only; not given: variable domains and light chain, IgG1, not shown: another chain or arm of the molecule) Fc: APELLGGPSVFIFPPNPKDTLMITRTPEVTCVVVDVSQENPDVKFNWYMDGVEVRTATTRPKEEQFNSTYRVVSVLRIQHVDWLSGKEFKCKVNNQALPQPIERTITKTKGRSQEPQVYVLAPHPDELSKSKVSVTCLVKDFYPPEINIEWQSNGQPELETKYSTTQAQQDSDGSYFLYSKLSVDRNRWQQGTTFTCGVMHEALHNHYTQKNVSKNPGK |  |
|  |  | 0.9 | 156 | Equine Y436H (antibody, part only; not given: variable domains and light chain, IgG1, not shown: another chain or arm of the molecule) Fc: APELLGGPSVFIFPPNPKDTLMITRTPEVTCVVVDVSQENPDVKFNWYMDGVEVRTATTRPKEEQFNSTYRVVSVLRIQHQDWLSGKEFKCKVNNQALPQPIERTITKTKGRSQEPQVYVLAPHPDELSKSKVSVTCLVKDFYPPEINIEWQSNGQPELETKYSTTQAQQDSDGSYFLYSKLSVDRNRWQQGTTFTCGVMHEALHNHHTQKNVSKNPGK |  |
|  |  | 3 | 48 | Equine T286E (antibody, part only; not given: variable domains and light chain, IgG1, not shown: another chain or arm of the molecule) Fc: APELLGGPSVFIFPPNPKDTLMITRTPEVTCVVVDVSQENPDVKFNWYMDGVEVREATTRPKEEQFNSTYRVVSVLRIQHQDWLSGKEFKCKVNNQALPQPIERTITKTKGRSQEPQVYVLAPHPDELSKSKVSVTCLVKDFYPPEINIEWQSNGQPELETKYSTTQAQQDSDGSYFLYSKLSVDRNRWQQGTTFTCGVMHEALHNHYTQKNVSKNPGK |  |
|  |  | 7.2 | 20.2 | Equine Q309V (antibody, part only; not given: variable domains, light chain, IgG1, not shown: another chain or arm of the molecule) Fc: APELLGGPSVFIFPPNPKDTLMITRTPEVTCVVVDVSQENPDVKFNWYMDGVEVRTATTRPKEEQFNSTYRVVSVLRIVHQDWLSGKEFKCKVNNQALPQPIERTITKTKGRSQEPQVYVLAPHPDELSKSKVSVTCLVKDFYPPEINIEWQSNGQPELETKYSTTQAQQDSDGSYFLYSKLSVDRNRWQQGTTFTCGVMHEALHNHYTQKNVSKNPGK |  |
